Residue numbers refer to the chain shown, from its start.
Columns and labels:
[1] = biological target: T1, PFV-Gag-NtD (amino terminal domain of Prototypic Foamy Virus Gag, residues 1-179) (Prototypic foamy virus (PFV), UniProt P14349 1-179); assay: ITC; ITC-200; 1 mM Env peptide in the syringe injected into 50 µM PFV-Gag-NtD in the cell; 25 mM Na-phosphate pH 6.55, 100 mM NaCl, 0.5 mM TCEP; settings: both partners purified
T1 construct: source: E. coli Rosetta 2 (DE3), purified (Ni-NTA, Superdex 200 SEC); not shown: His-tag, N-terminal, kept
T1 sequence: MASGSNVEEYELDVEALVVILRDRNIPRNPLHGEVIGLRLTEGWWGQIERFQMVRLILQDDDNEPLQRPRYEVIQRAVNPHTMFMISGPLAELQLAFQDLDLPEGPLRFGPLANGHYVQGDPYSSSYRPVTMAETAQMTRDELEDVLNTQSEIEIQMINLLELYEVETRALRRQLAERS

PFV-Gag-NtD L21N = biological target: T2, PFV-Gag-NtD L21N (Prototypic foamy virus (PFV), UniProt P14349 1-179, L21N); assay: AUC; sedimentation velocity of 75 µM equimolar mixtures of Gag-NtD and Env peptide, absorbance at 280 nm; bound fraction from the integrated absorbance of the 3S species in C(S); settings: both partners purified
T2 construct: Gag of Prototypic Foamy Virus, residues 1-179 (Gag-NtD) with L21N
T2 sequence (looked up): T1 sequence with L21N

PFV-Gag-NtD N29Q = biological target: T3, PFV-Gag-NtD N29Q (Prototypic foamy virus (PFV), UniProt P14349 1-179, N29Q); assay: as above; settings: both partners purified
T3 construct: Gag of Prototypic Foamy Virus, residues 1-179 (Gag-NtD) with N29Q
T3 sequence (looked up): T1 sequence with N29Q

[2] = biological target: T4, PFV-Gag-NtD (amino terminal domain of Prototypic Foamy Virus Gag, residues 1-179) (Prototypic foamy virus (PFV), UniProt P14349 1-179); assay: AUC
T4 chain: T1 sequence

B1: PFV Env leader peptide residues 1-20 (peptide, UniProt P14351 1-20, looked up)
peptide: MAPPMTLQQWIIWKKMNKAH
notes: Envelope (Env) protein of Prototypic Foamy Virus, N-terminal leader peptide region, residues 1-20 (Met1 to His20); the text names M1, A2, P3, P4, M5, T6, L7, Q9, W10, W13, M16, A19, H20; also called Env_(1-20); Env(1-20); source: synthetic peptide, bought HPLC purified: Pepceuticals Ltd
B1 was tested, and the Ka [1] was 150000 M⁻¹, the “stoichiometry N” value [1] was 1 and the binding result (PFV-Gag-NtD L21N) was “binds”. The binding result (PFV-Gag-NtD N29Q) was “binds” and the Kd [2] was 7.5 µM.

Source: PMC3649970, “A Unique Spumavirus Gag N-terminal Domain with Functional Properties of Orthoretroviral Matrix and Capsid” (PLoS Pathogens, 2013)
